For two substances, stoichiometry N and Kd results are on record in paper doi:10.1101/2024.11.08.622622.

pKd: −log10 of the molar value. Like-named read-outs stand apart in the source and are kept apart here.

The term stoichiometry N denotes a count of units in the complex or per binding partner. A word on the pKd: it is −log10 of the Kd, conventionally taken in molar units. A higher pKd goes with a small Kd.

Experiment [1] concerns the target His6X-Hsp20KKK (IAI motif 209-211 mutated to KKK) (Ustilago maydis). Description: SEC. A general note: In gel filtration, larger molecules generally elute earlier.
The target of experiment [2] is Ustilago maydis Hsp20, recombinant His6X-Hsp20 (Ustilago maydis). The experiment in a line: SEC.
Experiment [3] shares this target. The experiment in a line: SEC. The source holds these as a separate data set.
The next experiment addresses actin (Alexa 488 tagged). Description: FRET or BRET. (BRET reads energy transfer from a luciferase to a nearby fluorophore.)

In experiment [1], “His6X-Hsp20KKK (IAI motif 209-211 mutated to KKK) (natural protein)” registered a stoichiometry N of 2.

On to “Ustilago maydis Hsp20, recombinant His6X-Hsp20 (natural protein)”, for which the results for the stoichiometry N in experiment [2] and in experiment [3] were 18 and 2, respectively. The substance further gave a pKd with actin (Alexa 488 tagged) of 7.00.
